The values that follow come from patent US20210238289A1 (Biogen, published 2021).

By IC50 is commonly meant the midpoint of a concentration-inhibition curve. What is called EC50 is the concentration needed to bring the measured effect to its halfway point.

Test [1] has as its target T1, CD16 (FcγRIIIa V158) (UniProt P08637 17-208).
T1 construct: V158 allotype as printed
As to the kind of experiment: solution competition SPR (Biacore); text value differing from the table (100.2). The method, then:
Binding to Fcγ receptors was analyzed using solution affinity surface plasmon resonance (ref Day E S, Cachero T G, Qian F, Sun Y, Wen D, Pelletier M, Hsu Y M, Whitty A. Selectivity of BAFF/BLyS and APRIL for binding to the TNF family receptors BAFFR/BR3 and BCMA. Biochemistry. 2005 Feb. 15; 44(6):1919-31.) The method utilizes conditions of so-called “mass-transport-limited” binding, in which the initial rate of ligand binding (protein binding to the senor chip) is proportional to the concentration of ligand in solution (ref BIApplications Handbook (1994) Chapter 6: Concentration measurement, pp 6-1-6-10, Pharmacia Biosensor AB). Under these conditions, binding of the soluble analyte (protein flowing over chip surface) to the immobilized protein on the chip is fast compared to the diffusion of the analyte into the dextran matrix on the chip surface. Therefore, the diffusion properties of the analyte and the concentration of analyte in solution flowing over the chip surface determine the rate at which analyte binds to the chip. In this experiment, the concentration of free Fc receptor in solution is determined by the initial rate of binding to a CM5 Biacore chip containing an immobilized IgG1 MAb. Into these Fc receptor solutions were titrated the stability engineered constructs (see Table 10.1 below). […] Initial binding rates were obtained from raw sensorgram data (FIG. 14). […]

The next test has as its target CD64 (FcγRI) (UniProt P12314 16-288, limits assumed). Description: solution competition SPR (Biacore); construct titrated into receptor, free receptor read on immobilized IgG1 MAb. The method, then:
(§1) Binding to Fcγ receptors was analyzed using solution affinity surface plasmon resonance (ref Day E S, Cachero T G, Qian F, Sun Y, Wen D, Pelletier M, Hsu Y M, Whitty A. Selectivity of BAFF/BLyS and APRIL for binding to the TNF family receptors BAFFR/BR3 and BCMA. Biochemistry. 2005 Feb. 15; 44(6):1919-31.) The method utilizes conditions of so-called “mass-transport-limited” binding, in which the initial rate of ligand binding (protein binding to the senor chip) is proportional to the concentration of ligand in solution (ref BIApplications Handbook (1994) Chapter 6: Concentration measurement, pp 6-1-6-10, Pharmacia Biosensor AB). Under these conditions, binding of the soluble analyte (protein flowing over chip surface) to the immobilized protein on the chip is fast compared to the diffusion of the analyte into the dextran matrix on the chip surface. Therefore, the diffusion properties of the analyte and the concentration of analyte in solution flowing over the chip surface determine the rate at which analyte binds to the chip. In this experiment, the concentration of free Fc receptor in solution is determined by the initial rate of binding to a CM5 Biacore chip containing an immobilized IgG1 MAb. Into these Fc receptor solutions were titrated the stability engineered constructs (see Table 10.1 below). […] Initial binding rates were obtained from raw sensorgram data (FIG. 14). […] The results are shown in Table 10.1 and reported as the average of two titrations.
A general note: SPR reads the build-up and loss of mass on a sensor chip optically.

The target of test [2] is T1, CD16 (FcγRIIIa V158). The description is as above. The method, then:
as §1

In a further test the target is T2, human alpha-4 integrin (human, UniProt P13612 34-970, limits assumed).
T2 construct: also called the human receptor
As to the kind of experiment: in vitro binding affinity comparison; method not described.

Test [3] concerns the target T3, cynomolgus monkey alpha-4 integrin (cynomolgus monkey, UniProt A0A2K5U6S2 34-970).
T3 construct: also called cynomolgus alpha-4 integrin
The test is described as above.

The target in test [4] is T4, VLA receptors (alpha-4 integrin) of cynomolgus monkeys in vivo (cynomolgus monkey, UniProt A0A2K5U6S2 34-1032).
T4 construct: whole, on cells; Receptor occupancy measured in dosed animals; also called free VLA receptors
As to the kind of experiment: model-estimated (direct Emax PKPD model) EC50 for the formation of drug-bound VLA in cynomolgus monkeys. The text has this:
HP1/2 human PKs were projected through allometric scaling on monkey PK parameters (k10, k12, k21 and V1). See Singh, A. P et al. The AAPS Journal, 17(2), 389-399. […] The inherent monkey parameters were directly applied to human including Km, V max and the PD parameters (Eₘ, EC₅₀, E₀ and V). […] See Muralidharan, K. K. et al. Journal of Clinical Pharmacology, 57(8), 1017-1030. The data were integrated using an empirical scaling approach combining the EC₅₀ parameter values obtained in monkeys (m) and humans (h), after adjusting for potency (Kd) differences across species: […]

B1: IgG1 control antibody (hu5c8 IgG1, glycosylated) (antibody)
heavy: not shown
light: DIVLTQSPATLSVSPGERATISCRASQRVSSSTYSYMHWYQQKPGQPPKLLIKYASNLESGVPARFSGSGSGTDFTLTISSVEPEDFATYYCQHSWEIPPTFGGGTKLEIKRTVAAPSVFIFPPSDEQLKSGTASVVCLLNNFYPREAKVQWKVDNALQSGNSQESVTEQDSKDSTYSLSSTLTLSKADYEKHKVYACEVTHQGLSSPVTKSFNRGEC
notes: also called IgG1 wild type
Take B1: the IC50 in the test with CD16 (FcγRIIIa V158) [1] came to 105 µM; in the test with CD64 (FcγRI) it was 9.64 µM; in the test with CD16 (FcγRIIIa V158) [2], 100 µM.

B2: HP1/2 H1/L3 huIgG4P agly (N297Q, EU Numbering)/IgG1 chimera (antibody, V domains shown)
VH: EVQLVQSGAEVKKPGATVKISCKASGFNIKDTYMHWVQQAPGKGLEWMGRIDPASGDTKYDPKFQVRVTITADTSTDTAYMELSSLRSEDTAVYYCADGMWVSTGYALDFWGQGTLVTVSS
VL: SIVMTQSPDSLAVSLGERATINCKASQSVTNDVAWYQQKPGQPPKLLIYYASNRYTGVPDRFSGSGYGTDFTFTISSLQAEDVATYFCQQDYSSPYTFGQGTKVEIKR
notes: also called BIIB107; HP1/2 G4P agly/G1
In the case of B2, in the test with human alpha-4 integrin, the “fold higher affinity than natalizumab Fab fragment” value was > 19 fold and the “fold higher affinity than natalizumab intact” value is ~5 fold. Moreover, in test [3], the “fold weaker affinity than to the human receptor” value is ~5 fold. The EC50 in test [4] is 4.73 ng/mL.
